Test results taken from the supplement of paper PMC10567573.

B1: GAGE1 (parent)
chain: QPPEMIGPMRPEQFSDEVEPATPE

Variants of: B1
Experiment: protein stability index of a GFP-peptide fusion (GPS, HEK-293T) (PSI 1-6); higher = more stable
Conditions: c terminus: a fixed tail appended
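Note: lentivirally expressed fusions sorted by FACS into six bins by GFP to DsRed ratio, PSI derived from sequencing read proportions per bin multiplied by bin number.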

Protein stability index, by site and new letter:
S15: A 4.71, G 4.48, C 5.31, N 5.32, D 4.57, L 4.79, M 4.22, I 5.08, K 5.72, H 4.75, E 5.49, F 3.19
G7: E 5.69, A 5.38, Q 5.69, R 5.68, S 5.68, H 5.48, P 5.56, T 5.46, D 5.22, M 5.55, L 5.44, K 5.54, C 5.63, V 5.68, F 5.83, Y 5.76, N 5.91, I 5.14, W 5.73
Q13: R 5.58, L 5.64, D 4.11, V 5.62, I 5.6, S 5.46, P 5.91, F 5.02, A 5.12, Y 5.5, E 4.65, M 4.96, H 5.45, K 5.34, N 5.33, W 5.36, T 5.84, C 5.59, G 5.78
E12: N 5.46, G 5.01, Y 5.51, R 5.71, L 5.8, S 5.5, P 5.73, A 5.33, C 5.27, F 5.87, W 4.88, H 5.21, I 5.69, M 5.15, T 5.58, K 5.15, D 4.57, Q 5.57, V 5.83
M9: C 5.7, S 5.72, N 4.68, F 5.54, A 5.28, L 5.31, R 5.86, T 5.68, H 5.9, W 5.9, K 5.81, G 5.5, E 5.62, Q 5.49, D 5.82, V 5.97, Y 5.5, P 5.57, I 5.13
R10: V 4.98, N 5.28, M 5.12, S 5.56, D 3.42, F 5.47, W 5.34, K 4.93, L 4.37, T 4.38, Q 4.4, G 4.82, A 5.17, P 5.78, E 5, I 5.24, H 5.2, Y 5.24, C 5.51
F14: C 5.29, M 5.57, P 5.84, R 5.72, E 5.49, L 5.61, Q 5.56, G 5.68, V 5.48, A 5.4, H 5.46, T 5.81, I 5.28, S 5.97, N 5.87, Y 4.75, D 5.8, K 4.13, W 5.65
P11: S 5.6, I 4.87, E 5.69, C 5.5, Y 5.43, N 5.44, K 5.63, L 5.37, M 4.9, F 5.5, D 5.69, G 5.65, H 5.82, Q 5.34, A 5.35, W 5.39, V 5.7, R 5.55, T 5.61
I6: T 5.72, W 5.83, Y 5.65, V 5.79
P8: E 5.86, N 5.91, V 5.67, R 5.24, H 5.47, Y 4.92, A 5.5, I 5.09, M 4.75, G 5.45, C 5.48, T 5.62, F 4.9, S 5.54, K 5.46, D 5.1, Q 5.76, L 5.52
